Laboratory results taken from patent publication US20230340136A1, “TREATMENT OF CLL” (NOVARTIS AG, priority 2020, published 2023).

Legend:
[1] = target: BTK^C481S (Homo sapiens, UniProt Q06187, C481S); settings: cited from earlier work
[2] = target: T1, BAFF receptor (Homo sapiens, UniProt Q96RJ3); assay: Phase Ib study CVAY736Y2102: BAFF receptor occupancy; assay type: in vivo; settings: VAY736 doses of 3 mg/kg or above
T1 construct: endogenous in cells; host or cells: B cells / tissue of CLL patients in study CVAY736Y2102 (for A6: simulated by a PK/PD model, not measured)
From the text: (§1) The dosing cycle is 28 days. […] During the dose expansion part of the study, ibrutinib will be continued at the same dose schedule as tolerated before study enrollment, see exclusion criteria above for additional information on dose level.

[3] = tested on: BAFF; assay: Phase Ib study CVAY736Y2102: free (soluble) BAFF; design: species or system human; settings: in vivo
From the text: as §1

[4] = Phase Ib study CVAY736Y2102: pharmacokinetics of VAY736; assay type: in vivo, human; settings: in combination with ibrutinib
From the text: as §1

Chain of BTK^C481S (Q06187 whole entry C481S): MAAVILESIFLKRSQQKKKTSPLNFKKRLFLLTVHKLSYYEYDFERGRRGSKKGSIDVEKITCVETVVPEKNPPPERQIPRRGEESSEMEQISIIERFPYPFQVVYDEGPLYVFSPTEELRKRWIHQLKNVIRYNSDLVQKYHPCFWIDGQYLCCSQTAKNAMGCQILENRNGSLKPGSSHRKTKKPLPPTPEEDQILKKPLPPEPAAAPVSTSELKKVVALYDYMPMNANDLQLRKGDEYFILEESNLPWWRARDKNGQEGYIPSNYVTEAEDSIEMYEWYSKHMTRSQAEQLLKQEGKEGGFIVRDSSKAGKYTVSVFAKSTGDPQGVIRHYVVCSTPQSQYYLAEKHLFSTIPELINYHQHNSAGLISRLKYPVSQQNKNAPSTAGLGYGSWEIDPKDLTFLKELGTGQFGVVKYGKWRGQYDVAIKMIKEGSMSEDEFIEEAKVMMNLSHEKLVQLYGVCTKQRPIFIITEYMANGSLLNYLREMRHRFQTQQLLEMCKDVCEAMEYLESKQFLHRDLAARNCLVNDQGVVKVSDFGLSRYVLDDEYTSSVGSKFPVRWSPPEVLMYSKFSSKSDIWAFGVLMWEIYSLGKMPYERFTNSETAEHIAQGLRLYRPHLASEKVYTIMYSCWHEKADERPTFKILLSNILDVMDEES

| Tissue receptor occupancy [2] | Compound | activity against ibrutinib-resistant BTK^C481S mutation [1] | Free BAFF [3] | VAY736 concentration: dose dependence [4] | dose at which linear PK achieved [4] |
| --- | --- | --- | --- | --- | --- |
| – | C[C@H]1CN(C2COC2)CCN1c1ccc(Nc2cc(-c3ccnc(N4CCn5c(cc6c5CC(C)(C)C6)C4=O)c3CO)cn(C)c2=O)nc1 [fenebrutinib] | active against ibrutinib-resistant BTK^C481S | – | – | – |
| > 99% | VAY736: non-fucosylated human IgG1 kappa anti-BAFFR antibody, heavy chain SEQ ID NO: 9, light chain SEQ ID NO: 10 | – | accumulated to steady state with no dose relationship | increased with dose | ≥ 3 mg/kg |
